{
  "source": "paper PMC5647543",
  "about": "“The Two-State Prehensile Tail of the Antibacterial Toxin Colicin N” (Biophysical Journal, 2017)",
  "target": "T1, ColN_(90–387) (ColN-RP), receptor binding and pore forming domains of colicin N (Escherichia coli, UniProt P08083 90-387)",
  "T1 construct": "In PDB 1A87 the first resolved residue is S91; source: purified as previously described (20, 26); 15N-labelled protein from bacteria grown in M9 minimal medium with 15NH4Cl; not shown: His6 (-SSHHHHHH), C-terminal, kept",
  "T1 sequence (looked up)": "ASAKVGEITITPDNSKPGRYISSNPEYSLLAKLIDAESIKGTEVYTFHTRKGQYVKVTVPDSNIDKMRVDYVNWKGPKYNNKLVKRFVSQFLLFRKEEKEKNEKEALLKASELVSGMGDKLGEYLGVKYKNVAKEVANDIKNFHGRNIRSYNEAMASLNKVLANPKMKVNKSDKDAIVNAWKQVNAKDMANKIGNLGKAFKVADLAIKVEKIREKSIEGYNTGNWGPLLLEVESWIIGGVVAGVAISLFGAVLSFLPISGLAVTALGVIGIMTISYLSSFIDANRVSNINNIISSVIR",
  "assay": "NMR titration; free unlabelled ColN-T added to 15N-labelled ColN-RP; 15N-1H HSQC chemical shift changes; spectra at 15°C",
  "conditions": "both partners purified",
  "data": [
    {"binder": "ColN_(1–90) (ColN-T), isolated translocation domain of colicin N (domain or fragment, colicin N (ColN), residues 1-90, the intrinsically disordered translocation (T-) domain; the whole toxin has 387 residues; 98-residue construct: residues 1-90 followed directly by Ser2His6; Used unlabelled in the NMR mixing experiment; also called T-domain; ColN-T(1-90)-SSHHHHHH; source: purified as previously described (20, 26), dialysed into 50 mM sodium phosphate, pH 7.6, 300 mM NaCl; not …) MGSNGADNAHNNAFGGGKNPGIGNTSGAGSNGSASSNRGNSNGWSWSNKPHKNDGFHSDGSYHITFHGDNNSKPKPGGNSGNRGNNGDGA", "values": [
      {"measurement": "binding result", "result": "binds"}
    ]}
  ]
}
